From the supplement of paper PMC12042874
± gives the uncertainty stated by the source.

experiment: amyloid nucleation score (Sup35N fusion, yeast selection) (log enrichment); library NNK3; higher = more nucleation; inactive = no reads after selection
Outline: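 Growth for 7 days at 30°C on medium lacking adenine and uracil followed a 24-hour induction with 100 μM copper sulfate of psi-negative yeast expressing peptides of 20 random codons fused to Sup35N. Input and output plasmid inserts were sequenced with Illumina, and sequences with under 100 input reads were excluded. Nucleation score is the DiMSum log enrichment of output over input reads, centred on the mode score of non-aggregating sequences.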

| Substance | amyloid nucleation score |
| --- | --- |
| LVFRIN | inactive |
| LVFSNFYGYFRASC | inactive |
| LVFYMFAFITFVIYMMLIFY | 0.163 ± 0.29 |
| LVICKNINKLISWLSDYSFA | inactive |
| LVIWYLQSLYSPGINCQDLR | inactive |
| LVLAVVMTFRLRIRLSNLSR | inactive |
| LVLSVWKLKLSGLALIFWYG | inactive |
| LVNGTFNFSDHAESESCSHS | inactive |
| LVNLCRIRRVLECVRRRHRS | inactive |
| LVRCSNTR | inactive |
| LVRVGSSNYLVNQIRPNISA | inactive |
| LVSEPFQMRSTGGIGLIAVY | inactive |
| LVSVGSDWDCLHFISGKFPG | inactive |
| LVSWSIA | inactive |
| LVTFCYLDGSILNGEALRG | inactive |
| LVVCKLRV | inactive |
| LVVTTPLRRGKDLDSMRYTC | inactive |
| LVVVR | inactive |
| LVYFFFRVYNGPRMGS | inactive |
| LVYNLNRKRGCKGVPVLRYS | inactive |
| LVYVLDCRAKLTNYLISTLY | inactive |
| LWANNGSCFMCEYSHDGGKN | inactive |
| LWASTVGVFVGRRSPYLMCW | inactive |
| LWCCEYRNRAATMRVPDPEL | inactive |
| LWIVLQVHSFDVRFAQGFHI | 0.613 ± 0.17 |
| LWLMVFWKINGNMLGCHPEM | inactive |
| LWQNSDLSSSDEYGQRFGKR | -0.706 ± 1 |

| Substance | amyloid nucleation score |
| --- | --- |
| LWRLRAIWVNNVMAVRKFVG | -0.68 ± 1 |
| LWVRKDERGEYI | inactive |
| LWYGKYFFIDKRQA | 0.359 ± 0.23 |
| LYAQNLV | inactive |
| LYDCRRGNLVTSCWNKCCLP | inactive |
| LYDLTGPVSNLTISLLNVEY | inactive |
| LYDSSYMVDIDSYTLENCRS | inactive |
| LYFRLPNASAVDIIEIGFPV | 0.039 ± 0.55 |
| LYGGLEHESIMFIRCSGWIC | inactive |
| LYGGTAFLLSFCVAE | inactive |
| LYLYSWFC | inactive |
| LYMNFSMDGIASVSLGVLRL | 0.633 ± 0.19 |
| LYMYLGRVCMWHLRCHKRYN | inactive |
| LYNGGI | inactive |
| LYPVTKR | inactive |
| LYRPCLWSDWRT | inactive |
| LYSETWEY | inactive |
| LYSGFRGMPKYTDKNCMGRV | inactive |
| LYSIWGRNRGHGMIGWDPLT | inactive |
| LYSLT | inactive |
| LYSLVFWNDSSCRSRLVTWF | inactive |
| LYSVFVRRSCLNG | inactive |
| LYTDDAPGDVFLFNAFRVFH | inactive |
| LYVATS | inactive |
| LYVHFSILCTFGWSVPNQEG | inactive |
| LYYNYRGGYVYKNRDEVTLF | inactive |
| MALSRILTALVVLLLTVVVC | inactive |

| Substance | amyloid nucleation score |
| --- | --- |
| MAYLNLVQV | inactive |
| MCFGKYLSL | inactive |
| MCGDKSV | inactive |
| MCIHSITECRS | inactive |
| MCILQGLFDVNSLTGLWVAS | inactive |
| MCPPVSGNG | inactive |
| MCSRCLFHCGLVVCRVVVPA | inactive |
| MDAISFQRDMMFNGGFFCAM | inactive |
| MDEGIVKTELFYRWRISRLG | inactive |
| MDIRERRRFFSNIRRVRYLK | inactive |
| MDRIFWD | inactive |
| MDSLGW | inactive |
| MDVKKRQSSGVALRFELLDG | inactive |
| MDVWASYMTVSESVCSSLVR | inactive |
| MEINAVPD | inactive |
| MFCDLINESSHCCEATLECN | inactive |
| MFIFGGISFVMVSYLNRAHT | 1.13 ± 0.1 |
| MFLRVSTTINAYFLRVRSLI | inactive |
| MFLWRDCNGTN | inactive |
| MFMVHQVDTERW | inactive |
| MGGLIFVSLKAWSIILHYNK | inactive |
| MGHSDNGEDTSTWLCDRRVV | inactive |
| MGPRQKCALIATRKCQSVYL | -0.334 ± 1.1 |
| MGRAWTIQAGNVMCRVVGKH | -0.283 ± 0.58 |
| MGRGWRHGCWLGRILRFWYD | inactive |
